Earlier results, collected in PMC3124085.

Target: HIV-1 Gag p6 p6 (Human immunodeficiency virus 1) (UniProt O93182)
Sequence (O93182 450-500): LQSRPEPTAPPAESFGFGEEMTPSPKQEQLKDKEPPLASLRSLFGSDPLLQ

Sequence of TSG101 UEV (Q99816 1-148): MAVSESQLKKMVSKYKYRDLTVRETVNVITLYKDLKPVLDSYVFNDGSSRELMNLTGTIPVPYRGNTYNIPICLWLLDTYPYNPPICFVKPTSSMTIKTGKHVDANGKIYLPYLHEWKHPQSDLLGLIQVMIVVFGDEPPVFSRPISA

With TSG101 UEV (from UniProt Q99816) as the substance, how does the Kd read?
Its Kd is 27 µM.
